Assays:
[1] = target: T1, HLA-A2/E6 (29-38) tetramer (human; HPV 16); assay: tetramer flow cytometry; transfected 1:1 CD4+ and CD4+/CD8+ Jurkat-derived cells;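 further: cell mixtures transiently transfected with TCR-encoding plasmids, analysed by flow cytometry 48 h later after HLA-A*02:01 E6 tetramer staining combined with anti-CD8 antibody co-staining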
T1 construct: also called E6(29-38) peptide-MHC tetramer; E6(29-38)-loaded tetramer
Procedure: (§1) For transfection, the CD4+ and CD4+/CD8+ cell mixtures were transiently transfected with TCR-encoding plasmids and 48 hours after transfection, cells were assessed by flow cytometry for (1) binding of the target peptide in the context of an MHC molecule (HLA:A02:01) by staining with an E6(29-38) peptide- or an E7(11-19) peptide-MHC tetramer reagent, and/or (2) CD8+ independent binding of the target by co-staining the tetramer-labeled cells with an anti-CD8 antibody.

[2] = target: T1, HLA-A2/E6 (29-38) tetramer; assay: tetramer flow cytometry; transfected Jurkat-derived cells, CD8+ population
Procedure: as §1

[3] = target: HPV 16 E7(11-19) peptide in the context of HLA-A02:01 on target cells (human; HPV 16); assay: cell-based or functional assay
[4] = target: HPV 16 E6(29-38) peptide in the context of HLA-A02:01 on target cells (human; HPV 16); assay: cell-based or functional assay

Binder	% cells in E6 tet+/CD8+ quadrant [1] [%]	% cells in E6 tet+/CD8- quadrant [1] [%]	% cells in E6 tet-/CD8+ quadrant [1] [%]	% cells in E6 tet-/CD8- quadrant [1] [%]	% cells in E6 tet+/CD8+ quadrant [2] [%]	% cells in E6 tet+/CD8- quadrant [2] [%]	% cells in E6 tet-/CD8+ quadrant [2] [%]	% cells in E6 tet-/CD8- quadrant [2] [%]	% CD8+/IC IFNγ+; transduced primary CD8+ T cells with T2 cells pulsed with 10 uM E7(11-19) peptide (control peptide), E:T 10:1, 4 h [3] [%]	% CD8+/IC IFNγ+; transduced primary CD8+ T cells with T2 cells pulsed with 10 uM E6(29-38) peptide, E:T 10:1, 4 h [4] [%]
TCR 27 (codon optimized, cysteine modified version) (TCR, V domains shown) V domain 1: DAKTTQPNSMESNEEEPVHLPCNHSTISGTDYIHWYRQLPSQGPEYVIHGLTSNVNNRMASLAIAEDRKSSTLILHRATLRDAAVYYCILRVPPQSGGYQKVTFGTGTKLQVIP V domain 2: NAGVTQTPKFQVLKTGQSMTLQCAQDMNHNSMYWYRQDPGMGLRLIYYSASEGTTDKGEVPNGYNVSRLNKREFSLRLESAAPSQTSVYFCASSEFGSLNEKLFFGSGTQLSVLE	15.8	3.5	20.1	60.6	24.5	0.02	73.5	1.96	–	–
modified version of TCR 9 (codon optimized, cysteine modified) (TCR) TCR alpha: AQKITQTQPGMFVQEKEAVTLDCTYDTSDPSYGLFWYKQPSSGEMIFLIYQGSYDQQNATEGRYSLNFQKARKSANLVISASQLGDSAMYFCAMRTAGGTSYGKLTFGQGTILTVHPNIQNPDPAVYQLRDSKSSDKSVCLFTDFDSQTNVSQSKDSDVYITDKCVLDMRSMDFKSNSAVAWSNKSDFACANAFNNSIIPEDTFFPSPESSCDVKLVEKSFETDTNLNFQNLSVIGFRILLLKVAGFNLLMTLRLWSS TCR beta: NAGVTQTPKFRVLKTGQSMTLLCAQDMNHEYMYWYRQDPGMGLRLIHYSVGEGTTAKGEVPDGYNVSRLKKQNFLLGLESAAPSQTSVYFCASSYFGTAYEQYFGPGTRLTVTEDLKNVFPPEVAVFEPSEAEISHTQKATLVCLATGFYPDHVELSWWVNGKEVHSGVCTDPQPLKEQPALNDSRYCLSSRLRVSATFWQNPRNHFRCQVQFYGLSENDEWTQDRAKPVTQIVSAEAWGRADCGFTSESYQQGVLSATILYEILLGKATLYAVLVSALVLMAMVKRKDSRG	–	–	–	–	42.5	0.051	55.6	1.89	19.5	91.1
modified version of TCR 5 (codon optimized, cysteine modified) (TCR, V domains shown) V domain 1: AQKITQTQPGMFVQEKEAVTLDCTYDTSDQSYGLFWYKQPSSGEMIFLIYQGSYDEQNATEGRYSLNFQKARKSANLVISASQLGDSAMYFCAMREGTGTSYGKLTFGQGTILTVHP V domain 2: DVKVTQSSRYLVKRTGEKVFLECVQDMDHENMFWYRQDPGLGLRLIYFSYDVKMKEKGDIPEGYSVSREKKERFSLILESASTNQTSMYLCASSPWGETHQPQHFGDGTRLSILE	–	–	–	–	–	–	–	–	7.22	43.7
TCR 18 (codon optimized, cysteine modified version) (TCR, V domains shown) V domain 1: KQEVTQIPAALSVPEGENLVLNCSFTDSAIYNLQWFRQDPGKGLTSLLLIQSSQREQTSGRLNASLDKSSGRSTLYIAASQPGDSATYLCAEGNAGGTSYGKLTFGQGTILTVHP V domain 2: DVKVTQSSRYLVKRTGEKVFLECVQDMDHENMFWYRQDPGLGLRLIYFSYDVKMKEKGDIPEGYSVSREKKERFSLILESASTNQTSMYLCASSFWGRSNSPLHFGNGTRLTVTE	23.3	3.61	12	61.1	50.4	0.045	47.7	1.86	–	–
TCR 17 (codon optimized, cysteine modified version) (TCR, V domains shown) V domain 1: AQKITQTQPGMFVQEKEAVTLDCTYDTSDPSYGLFWYKQPSSGEMIFLIYQGSYDQQNATEGRYSLNFQKARKSANLVISASQLGDSAMYFCAMREGRGDKIIFGKGTRLHILP V domain 2: DVKVTQSSRYLVKRTGEKVFLECVQDMDHENMFWYRQDPGLGLRLIYFSYDVKMKEKGDIPEGYSVSREKKERFSLILESASTNQTSMYLCASSLWGRSNQPQHFGDGTRLSILE	36.2	21.3	7.72	34.8	34.7	0.17	63.6	1.53	–	–
TCR 24 (codon optimized, cysteine modified version) (TCR, V domains shown) V domain 1: AQKITQTQPGMFVQEKEAVTLDCTYDTSDQSYGLFWYKQPSSGEMIFLIYQGSYDEQNATEGRYSLNFQKARKSANLVISASQLGDSAMYFCAMREGRGDSWGKLQFGAGTQVVVTP V domain 2: DVKVTQSSRYLVKRTGEKVFLECVQDMDHENMFWYRQDPGLGLRLIYFSYDVKMKEKGDIPEGYSVSREKKERFSLILESASTNQTSMYLCASSPFGRGSYEQYFGPGTRLTVTE	55	23.5	5.56	16	29.1	0.13	66.2	4.51	–	–
TCR 23 (codon optimized, cysteine modified version) (TCR, V domains shown) V domain 1: AQKITQTQPGMFVQEKEAVTLDCTYDTSDQSYGLFWYKQPSSGEMIFLIYQGSYDEQNATEGRYSLNFQKARKSANLVISASQLGDSAMYFCAMSPPGGSARQLTFGSGTQLTVLP V domain 2: DVKVTQSSRYLVKRTGEKVFLECVQDMDHENMFWYRQDPGLGLRLIYFSYDVKMKEKGDIPEGYSVSREKKERFSLILESASTNQTSMYLCASSPWGQSNQPQHFGDGTRLSILE	52.5	22.5	5.19	19.7	43.6	0.18	54.1	2.14	–	–
TCR 21 (codon optimized, cysteine modified version) (TCR, V domains shown) V domain 1: AQKITQTQPGMFVQEKEAVTLDCTYDTSDQSYGLFWYKQPSSGEMIFLIYQGSYDEQNATEGRYSLNFQKARKSANLVISASQLGDSAMYFCAMREGRVTGGGNKLTFGTGTQLKVEL V domain 2: NAGVTQTPKFQVLKTGQSMTLQCAQDMNHNSMYWYRQDPGMGLRLIYYSASEGTTDKGEVPNGYNVSRLNKREFSLRLESAAPSQTSVYFCASRPWGNQNTEAFFGQGTRLTVVE	28.8	32.7	7.16	31.3	51.6	0.22	46	2.18	–	–
modified version of TCR 8 (codon optimized, cysteine modified) (TCR, V domains shown) V domain 1: KQEVTQIPAALSVPEGENLVLNCSFTDSAIYNLQWFRQDPGKGLTSLLLIQSSQREQTSGRLNASLDKSSGRSTLYIAASQPGDSATYLCAVRPLGNTPLVFGKGTRLSVIA V domain 2: KVTQSSRYLVKRTGEKVFLECVQDMDHENMFWYRQDPGLGLRLIYFSYDVKMKEKGDIPEGYSVSREKKERFSLILESASTNQTSMYLCASSLWGASTDTQYFGPGTRLTVLE	–	–	–	–	–	–	–	–	11.4	95
modified version of TCR 7 (codon optimized, cysteine modified) (TCR, V domains shown) V domain 1: KNQVEQSPQSLIILEGKNCTLQCNYTVSPFSNLRWYKQDTGRGPVSLTIMTFSENTKSNGRYTATLDADTKQSSLHITASQLSDSASYICVVSRDNYGQNFVFGPGTRLSVLP V domain 2: EPEVTQTPSHQVTQMGQEVILRCVPISNHLYFYWYRQILGQKVEFLVSFYNNEISEKSEIFDDQFSVERPDGSNFTLKIRSTKLEDSAMYFCAITDRTNYGYTFGSGTRLTVVE	–	–	–	–	–	–	–	–	–	70.5
modified version of TCR 4 (codon optimized, cysteine modified) (TCR) TCR alpha: DAKTTQPNSMESNEEEPVHLPCNHSTISGTDYIHWYRQLPSQGPEYVIHGLTSNVNNRMASLAIAEDRKSSTLILHRATLRDAAVYYCILLVIRGTSYGKLTFGQGTILTVHPNIQNPDPAVYQLRDSKSSDKSVCLFTDFDSQTNVSQSKDSDVYITDKCVLDMRSMDFKSNSAVAWSNKSDFACANAFNNSIIPEDTFFPSPESSCDVKLVEKSFETDTNLNFQNLSVIGFRILLLKVAGFNLLMTLRLWSS TCR beta: DTGVSQDPRHKITKRGQNVTFRCDPISEHNRLYWYRQTLGQGPEFLTYFQNEAQLEKSRLLSDRFSAERPKGSFSTLEIQRTEQGDSAMYLCASSPGGGNTEAFFGQGTRLTVVEDLNKVFPPEVAVFEPSEAEISHTQKATLVCLATGFFPDHVELSWWVNGKEVHSGVCTDPQPLKEQPALNDSRYCLSSRLRVSATFWQNPRNHFRCQVQFYGLSENDEWTQDRAKPVTQIVSAEAWGRADCGFTSVSYQQGVLSATILYEILLGKATLYAVLVSALVLMAMVKRKDF	–	–	–	–	–	–	–	–	2.5	94.2
modified version of TCR 3 (codon optimized, cysteine modified) (TCR) TCR alpha: AQKITQTQPGMFVQEKEAVTLDCTYDTSDQSYGLFWYKQPSSGEMIFLIYQGSYDEQNATEGRYSLNFQKARKSANLVISASQLGDSAMYFCAMREGRGFKTIFGAGTRLFVKANIQKPDPAVYQLRDSKSSDKSVCLFTDFDSQTNVSQSKDSDVYITDKCVLDMRSMDFKSNSAVAWSNKSDFACANAFNNSIIPADTFFPSPESSCDVKLVEKSFETDTNLNFQNLSVIGFRILLLKVAGFNLLMTLRLWSS TCR beta: GAGVSQSPRYKVAKRGQDVALRCDPISGHVSLFWYQQALGQGPEFLTYFQNEAQLDKSGLPSDRFFAERPEGSVSTLKIQRTQQEDSAVYLCASSHLAGFTGELFFGEGSRLTVLEDLKNVFPPEVAVFEPSEAEISHTQKATLVCLATGFYPDHVELSWWVNGKEVHSGVCTDPQPLKEQPALNDSRYCLSSRLRVSATFWQNPRNHFRCQVQFYGLSENDEWTQDRAKPVTQIVSAEAWGRADCGFTSESYQQGVLSATILYEILLGKATLYAVLVSALVLMAMVKRKDSRG	–	–	–	–	–	–	–	–	2.51	95.1

Reference: patent publication US20190225692A1 (JUNO THERAPEUTICS, published 2019)
